Laboratory results: article PMC7877763, “Aberrant binding of mutant HSP47 affects posttranslational modification of type I collagen and leads to osteogenesis imperfecta” (PLoS Genetics, 2021)
Positions count from the first letter of the chain named. Names and notes keep the numbering of the source.

B1: recombinant wild-type canine HSP47 (natural protein, UniProt C7C419 36-418, looked up)
chain: LSPKAATLAERSAGLAFSLYQAMAKDQAVENILLSPVVVASSLGLVSLGGKATTASQAKAVLSAEQLRDEEVHAGLGELLRSLSNSTARNVTWKLGSRLYGPSSVSFAEDFVRSSKQHYNCEHSKINFRDKRSALQSINEWAAQTTDGKLPEVTKDVERTDGALLVNAMFFKPHWDEKFHHKMVDNRGFMVTRSYTVGVTMMHRTGLYNYYDDEKEKLQIVEMPLAHKLSSLIILMPHHVEPLERLEKLLTKEQLKIWMGKMQKKAVAISLPKGVVEVTHDLQKHLAGLGLTEAIDKNKADLSRMSGKKDLYLASVFHATAFEWDTEGNPFDQDIYGREELRSPKLFYADHPFIFLVRDTQSGSLLFIGRLVRPKGDKMRDEL
notes: HSP47 (serpin H1), canine, residues 36-418 printed as 36LSP; RDEL418, in a pJExpress411 vector; The methods describe a strep-tagged construct; the ELISA methods speak of His-tagged HSP47 proteins detected by an anti-His antibody; also called wild-type HSP47; WT HSP47; source: E. coli BL21 (DE3), purified (Streptactin column, Superdex 200 SEC)
B2: recombinant canine HSP47-R222S (natural protein, UniProt C7C419 36-418, looked up)
chain: B1 chain with R187S
notes: HSP47 (serpin H1), canine, residues 36-418 (36LSP... RDEL418) with R222S introduced by Quikchange mutagenesis; The substitution is the one found in the human patient, placed in the canine protein; Strep tag by the purification methods, His tag by the ELISA methods; also called R222S HSP47; source: E. coli BL21 (DE3), purified as wild-type HSP47 (Streptactin column, Superdex 200 SEC)

Tests used:
[1] = molecular target: T1, full length pepsinized type I collagen from mouse tail tendon (mouse, UniProt P11087 152-1207; Q01149 86-1125); assay: SPR; BIAcore X; type I collagen from mouse tail tendon immobilised on a CM5 chip by amide coupling (about 6,000 RU); HSP47 flowed over; 20°C; HBS-P (10 mM Hepes pH 7.4, 150 mM NaCl, 0.005% Surfactant P20); 10 ul/min; Langmuir binding model; conditions: both partners purified
T1 construct: collagen alpha-1(I) chain, mouse; collagen alpha-2(I) chain, mouse; Chain composition (two alpha1(I), one alpha2(I)) as the introduction tells of type I collagen in general; source: purified from mouse tail tendon (pepsinized); copies: 2 + 1
T1 sequence (P11087 152-1207, chain 1 of 2): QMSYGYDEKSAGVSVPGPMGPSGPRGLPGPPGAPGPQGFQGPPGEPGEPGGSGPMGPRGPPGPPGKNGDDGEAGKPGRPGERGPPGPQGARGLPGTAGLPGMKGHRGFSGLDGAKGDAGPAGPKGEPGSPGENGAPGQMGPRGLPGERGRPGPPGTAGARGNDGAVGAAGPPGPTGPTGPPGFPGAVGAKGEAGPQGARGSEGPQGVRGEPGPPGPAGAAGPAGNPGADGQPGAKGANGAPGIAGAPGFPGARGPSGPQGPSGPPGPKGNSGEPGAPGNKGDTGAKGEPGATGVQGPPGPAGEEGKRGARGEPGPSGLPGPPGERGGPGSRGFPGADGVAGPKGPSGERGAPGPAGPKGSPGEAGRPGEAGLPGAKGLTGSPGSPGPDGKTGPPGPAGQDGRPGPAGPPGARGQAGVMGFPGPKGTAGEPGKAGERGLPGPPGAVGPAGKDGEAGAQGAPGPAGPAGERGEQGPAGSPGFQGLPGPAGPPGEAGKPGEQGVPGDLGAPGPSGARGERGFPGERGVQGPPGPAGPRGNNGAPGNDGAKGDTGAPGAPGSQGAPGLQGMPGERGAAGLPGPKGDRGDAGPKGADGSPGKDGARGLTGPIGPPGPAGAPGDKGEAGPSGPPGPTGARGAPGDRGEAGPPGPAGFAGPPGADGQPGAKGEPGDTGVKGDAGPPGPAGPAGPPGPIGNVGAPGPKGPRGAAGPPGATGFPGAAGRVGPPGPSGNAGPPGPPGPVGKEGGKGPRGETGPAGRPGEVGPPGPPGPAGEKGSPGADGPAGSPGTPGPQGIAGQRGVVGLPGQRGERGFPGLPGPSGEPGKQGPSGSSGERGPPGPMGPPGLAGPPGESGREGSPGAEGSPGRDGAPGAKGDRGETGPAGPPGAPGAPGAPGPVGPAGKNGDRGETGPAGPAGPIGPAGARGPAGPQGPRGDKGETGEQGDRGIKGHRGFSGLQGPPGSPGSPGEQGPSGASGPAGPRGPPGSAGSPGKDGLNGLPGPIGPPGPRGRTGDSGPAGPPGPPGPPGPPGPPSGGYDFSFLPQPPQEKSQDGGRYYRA
T1 sequence (Q01149 86-1125, chain 2 of 2): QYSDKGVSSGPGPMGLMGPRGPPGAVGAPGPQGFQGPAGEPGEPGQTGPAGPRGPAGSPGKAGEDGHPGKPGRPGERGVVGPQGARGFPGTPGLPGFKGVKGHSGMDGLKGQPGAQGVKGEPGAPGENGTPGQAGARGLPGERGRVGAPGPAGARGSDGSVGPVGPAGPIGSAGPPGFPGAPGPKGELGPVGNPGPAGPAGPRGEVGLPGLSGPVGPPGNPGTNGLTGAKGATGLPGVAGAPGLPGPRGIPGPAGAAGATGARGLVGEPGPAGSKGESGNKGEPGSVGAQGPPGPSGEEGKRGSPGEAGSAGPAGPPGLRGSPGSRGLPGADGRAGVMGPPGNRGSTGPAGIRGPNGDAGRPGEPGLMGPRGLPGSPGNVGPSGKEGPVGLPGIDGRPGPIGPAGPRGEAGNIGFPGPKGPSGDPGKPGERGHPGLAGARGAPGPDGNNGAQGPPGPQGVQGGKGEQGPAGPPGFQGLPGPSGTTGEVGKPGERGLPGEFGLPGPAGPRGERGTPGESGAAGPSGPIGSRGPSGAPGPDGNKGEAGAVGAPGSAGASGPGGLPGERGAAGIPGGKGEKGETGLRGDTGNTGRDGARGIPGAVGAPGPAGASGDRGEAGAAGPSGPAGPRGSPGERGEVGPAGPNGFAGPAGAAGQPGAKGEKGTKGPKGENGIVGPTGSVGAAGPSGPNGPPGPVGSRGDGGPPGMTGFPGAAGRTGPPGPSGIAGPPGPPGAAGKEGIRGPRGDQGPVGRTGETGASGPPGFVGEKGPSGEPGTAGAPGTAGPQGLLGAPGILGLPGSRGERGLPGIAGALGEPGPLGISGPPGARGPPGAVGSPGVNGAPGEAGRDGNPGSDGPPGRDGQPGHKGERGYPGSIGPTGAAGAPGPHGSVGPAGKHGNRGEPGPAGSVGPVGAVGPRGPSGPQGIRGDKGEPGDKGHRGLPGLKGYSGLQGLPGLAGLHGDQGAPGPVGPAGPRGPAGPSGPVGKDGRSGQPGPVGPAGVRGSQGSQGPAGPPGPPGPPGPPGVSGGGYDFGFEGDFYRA

[2] = molecular target: T2, type I collagen from rat tail (rat, UniProt P02454 152-1207; P02466 86-1125); assay: ELISA; ELISA-like binding assay; type I collagen from rat tail coated at 10 ug/mL on MaxiSorp plates (coating of GPR-foldon not described); His-tagged HSP47 at 1.2 to 5,000 nM in solution; detected with HRP-coupled anti-His antibody; four-parameter logistic fit; conditions: both partners purified
T2 construct: collagen alpha-1(I) chain, rat; collagen alpha-2(I) chain, rat; Chain composition as the introduction tells of type I collagen in general; also called full length type I collagen; source: bought: BD Bioscience; copies: 2 + 1
T2 sequence (P02454 152-1207, chain 1 of 2): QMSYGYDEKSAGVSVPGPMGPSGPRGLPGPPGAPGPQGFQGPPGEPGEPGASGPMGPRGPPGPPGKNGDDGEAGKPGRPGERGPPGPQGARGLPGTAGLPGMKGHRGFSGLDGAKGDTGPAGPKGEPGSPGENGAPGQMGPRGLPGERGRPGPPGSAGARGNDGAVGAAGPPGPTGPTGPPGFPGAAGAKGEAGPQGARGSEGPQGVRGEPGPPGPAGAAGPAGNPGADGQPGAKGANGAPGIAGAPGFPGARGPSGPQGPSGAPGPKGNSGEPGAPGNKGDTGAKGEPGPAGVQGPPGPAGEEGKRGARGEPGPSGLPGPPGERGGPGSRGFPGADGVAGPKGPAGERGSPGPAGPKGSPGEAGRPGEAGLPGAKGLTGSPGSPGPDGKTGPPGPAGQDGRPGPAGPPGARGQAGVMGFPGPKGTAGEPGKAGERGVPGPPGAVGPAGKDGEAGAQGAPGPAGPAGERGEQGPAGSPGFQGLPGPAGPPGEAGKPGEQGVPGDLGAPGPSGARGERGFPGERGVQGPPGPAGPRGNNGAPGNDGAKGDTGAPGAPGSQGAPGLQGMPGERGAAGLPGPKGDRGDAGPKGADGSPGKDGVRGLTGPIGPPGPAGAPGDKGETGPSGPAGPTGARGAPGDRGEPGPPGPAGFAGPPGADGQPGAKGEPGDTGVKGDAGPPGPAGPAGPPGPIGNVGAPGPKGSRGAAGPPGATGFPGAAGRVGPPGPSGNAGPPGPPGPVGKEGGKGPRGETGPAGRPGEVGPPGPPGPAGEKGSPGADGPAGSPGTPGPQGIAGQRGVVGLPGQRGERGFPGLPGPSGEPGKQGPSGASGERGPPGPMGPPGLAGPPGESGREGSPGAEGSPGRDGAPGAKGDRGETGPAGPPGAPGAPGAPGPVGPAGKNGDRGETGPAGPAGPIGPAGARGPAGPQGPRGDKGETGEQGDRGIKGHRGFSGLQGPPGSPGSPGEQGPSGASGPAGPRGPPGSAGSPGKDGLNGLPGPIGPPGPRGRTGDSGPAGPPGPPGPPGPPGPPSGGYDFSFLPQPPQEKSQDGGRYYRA
T2 sequence (P02466 86-1125, chain 2 of 2): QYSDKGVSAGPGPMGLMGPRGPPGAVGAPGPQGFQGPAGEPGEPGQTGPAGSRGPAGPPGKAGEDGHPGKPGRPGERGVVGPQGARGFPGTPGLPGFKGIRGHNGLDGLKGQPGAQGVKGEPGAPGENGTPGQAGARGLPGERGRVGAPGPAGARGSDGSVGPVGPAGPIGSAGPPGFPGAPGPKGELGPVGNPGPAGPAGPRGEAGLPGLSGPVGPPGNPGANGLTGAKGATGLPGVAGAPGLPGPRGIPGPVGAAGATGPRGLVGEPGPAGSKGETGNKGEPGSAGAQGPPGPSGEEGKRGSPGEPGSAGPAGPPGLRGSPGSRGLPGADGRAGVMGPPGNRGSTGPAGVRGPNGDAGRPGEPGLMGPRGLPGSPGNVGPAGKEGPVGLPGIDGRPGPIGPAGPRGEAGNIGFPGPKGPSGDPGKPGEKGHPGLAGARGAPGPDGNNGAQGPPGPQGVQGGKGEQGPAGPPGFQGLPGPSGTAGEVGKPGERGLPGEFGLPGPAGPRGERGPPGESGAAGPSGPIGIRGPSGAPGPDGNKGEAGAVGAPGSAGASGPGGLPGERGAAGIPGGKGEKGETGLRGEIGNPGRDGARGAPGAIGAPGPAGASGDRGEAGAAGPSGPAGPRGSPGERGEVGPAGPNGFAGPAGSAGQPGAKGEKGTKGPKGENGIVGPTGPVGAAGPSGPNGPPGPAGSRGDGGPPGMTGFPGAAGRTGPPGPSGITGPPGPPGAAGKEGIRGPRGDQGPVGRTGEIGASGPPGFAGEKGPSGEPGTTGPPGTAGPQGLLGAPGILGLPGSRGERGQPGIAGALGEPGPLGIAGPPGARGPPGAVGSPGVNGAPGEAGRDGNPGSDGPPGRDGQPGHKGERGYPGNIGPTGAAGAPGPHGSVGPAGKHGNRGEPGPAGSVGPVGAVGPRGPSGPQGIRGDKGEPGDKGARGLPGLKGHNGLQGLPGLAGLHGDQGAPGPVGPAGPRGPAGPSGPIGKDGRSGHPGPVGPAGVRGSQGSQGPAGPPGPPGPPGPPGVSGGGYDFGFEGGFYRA

| Binder | Kd [1] [nM] | Kd [2] [nM] |
| --- | --- | --- |
| B1 | 60 | 139 |
| B2 | 640 | ~3600 |
